Assay results reported in the supplement of paper PMC9732359.
± gives the uncertainty stated by the source.

experiment: protein stability index of a GFP-peptide fusion (yeast GPS) (PSI 1-4); higher = more stable; sorted into four equal gates, so the index is relative within each strain; details: doa10∆
Procedure, shortened: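 The protein stability index of a peptide was calculated by multiplying its read frequency in each gate by that gate's number and adding the products. The peptides were tiled 17-residue stretches of yeast proteins, fused downstream of GFP on a Cherry-expressing plasmid and carried in yeast as a pooled library. Mid-log cultures in leucine-free medium were sorted into four equal gates by GFP/Cherry ratio, and each gate's plasmids were PCR-amplified and Illumina-sequenced.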

Going from FQIIDTLLPGLQDEVMN [RPS2] to FQIVIEPLAIALSMGKS [ARP7], the protein stability index falls from 2.32 ± 0.082 to 1.42 ± 0.054.

FQMNCYAKEDAFSYPRM [RPN2] and FQNSYKPALKVSKEGLY [YMR129W/POM152] are within error of each other in protein stability index: 2.53 ± 0.12 for the first, 2.42 ± 0.22 for the second.

Going from FQQIQYENKQLYFPDDY [POP1] to FQSQQRRKDTSMVLFFV [RPB9], the protein stability index falls from 2.92 ± 0.11 to 1.55 ± 0.083.

First: FRAVGEGNAQLVAIFGG [FAS1]
Second: FRETTHSKRELDSGDDQ [BRR2]
The protein stability index of the first is lower: 1.17 ± 0.043 for the first, 3.31 ± 0.12 for the second.

Going from FRSYMDQEKKYGMSITE [RPB2] to FSFGKPFFSSNTSSLQS [YIL149C/MLP2], the protein stability index rises from 1.69 ± 0.054 to 2.95 ± 0.054.

FSFGQNNNNTNTQPSAS [YGR119C/NUP57] and FSFGTSQPNNTPSFSFG [YLR335W/NUP2] are within error of each other in protein stability index: 2.87 ± 0.071 for the first, 2.81 ± 0.048 for the second.

First: FSGKGVHKLRHYLVNLT [GRR1]
Second: FSKILPAALDGLMKSYK [ESC2]
The protein stability index of the first is lower: 1.28 ± 0.037 for the first, 2.71 ± 0.059 for the second.

Compared with FSNKYLELCKLASNNLE [RRI2], FSNVNELQEKNVELLNC [YIL149C/MLP2] is higher in protein stability index: 1.95 ± 0.054 for the first, 3.09 ± 0.082 for the second.

First: FSPVISQSLTSILVIVQ [SWI1]
Second: FSSKNEWRKSAIANTLL [PRP8]
The protein stability index of the first is lower: 1.43 ± 0.048 for the first, 2.99 ± 0.056 for the second.

First: FTFGQSTSENKISEGSA [YOR098C/NUP1]
Second: FTGQGSQEQGMGMDLYK [FAS1]
The protein stability index of the first is higher: 3.71 ± 0.16 for the first, 3.28 ± 0.12 for the second.

Going from FTLTYDIIETFSSKRKT [YMR129W/POM152] to FTNIISRNKALELNLSV [YJL039C/NUP192], the protein stability index rises from 1.88 ± 0.05 to 2.64 ± 0.11.

First: FTQLKKNIPKTRYNRDY [SNU114]
Second: FTQQELQKQMGIGSLTD [RPC34]
The protein stability index of the first is higher: 2.48 ± 0.052 for the first, 2.22 ± 0.088 for the second.

First: FTSHTRLRQGAAKLRTL [RPL2A]
Second: FTTNKSKDVSRLLSALG [SRP21]
The protein stability index of the first is lower: 2.03 ± 0.059 for the first, 3.03 ± 0.2 for the second.

First: FVIPILIKMSRSPPRPP [PRP28]
Second: FVTRKSRKRAKKMTKKA [PRP8]
The protein stability index of the first is lower: 2.04 ± 0.069 for the first, 3.02 ± 0.075 for the second.

First: FVVGVDNVSSQQMHEVR [RPP0]
Second: FVVKLDTVDRLIIKYQK [GAL11]
The protein stability index of the first is lower: 2.1 ± 0.078 for the first, 2.25 ± 0.042 for the second.

First: FWFDKLVTKILPLKKNE [YCG1]
Second: FWSLHSSTYYNLDYLFE [NUT1]
The protein stability index of the first is higher: 2.83 ± 0.21 for the first, 2.44 ± 0.053 for the second.

First: FYERLDKSTTQLRKEIQ [MED11]
Second: GAEDPKVLINDQLSTIS [SWI1]
The protein stability index of the first is lower: 2.61 ± 0.063 for the first, 3.27 ± 0.18 for the second.

Compared with GAEVDEARINELLSSLE [RPP2B], GAFDQLKQNAIRARIPF [SRP54] is lower in protein stability index: 3.16 ± 0.11 for the first, 2.69 ± 0.063 for the second.

Going from GAKGSTLIVVPFNQGSK [FAS2] to GAKNIEITVVKPDSDIV [PRE6], the protein stability index rises from 2.1 ± 0.095 to 2.54 ± 0.047.

First: GALHFVQQSEKLRNEVE [YIL149C/MLP2]
Second: GALQESVEAYLVSLFED [HHT1]
The protein stability index of the first is higher: 3.17 ± 0.14 for the first, 1.42 ± 0.095 for the second.

GAMGLLSSAGAKSTVET [RIP1] and GANPRVLSTFTAEFGKI [RPN10] are within error of each other in protein stability index: 2.01 ± 0.12 for the first, 2.14 ± 0.11 for the second.

Compared with GAPGANARMPGMPNMPG [SRP54], GAQIVSKQIFTHPKDTF [ARP9] is lower in protein stability index: 3.15 ± 0.083 for the first, 2.23 ± 0.069 for the second.

Compared with GASGVDDFQNFFDPKPF [SWI1], GASIIQVIFEIFEISLQ [YML103C/NUP188] is lower in protein stability index: 2.65 ± 0.065 for the first, 1.53 ± 0.046 for the second.

Compared with GASNGDDSNGGNGEGLG [BRN1], GATSKPAFSFGAKPEEK [YJL041W/NSP1] is lower in protein stability index: 3.42 ± 0.14 for the first, 3.05 ± 0.098 for the second.

First: GATVFVNHLLLFAREIA [DPB4]
Second: GCGNTQPTIRKDGLKLV [RPO21]
The protein stability index of the first is lower: 1.94 ± 0.046 for the first, 2.42 ± 0.084 for the second.

Going from GCIPGNRKRIVTLRKSL [RPL3] to GCLSVLYQSKGRYMEAL [SRP68], the protein stability index rises from 1.38 ± 0.069 to 2.83 ± 0.13.

Going from GCVDIDDALHAKKLPNG [DIS3] to GDHNKLRSTIANLLQIN [YML103C/NUP188], the protein stability index falls from 3.26 ± 0.059 to 2.27 ± 0.054.

Going from GDIKPEFSPRLHNIWSN [YML103C/NUP188] to GDIKVLDSNFNLQREID [RPN14], the protein stability index falls from 3.22 ± 0.14 to 2.96 ± 0.12.

Going from GDVVLAAAYSHELPRYG [RPL5] to GEGERFTVDKKIAERSL [SKP1], the protein stability index rises from 2.83 ± 0.073 to 3.44 ± 0.12.

Going from GEIIDISAFTQFLRLIF [ARP9] to GELEQAQAWINLGEYYA [RPN7], the protein stability index rises from 2.45 ± 0.08 to 3.58 ± 0.28.

Compared with GELKRGNESVKPQFENH [MED11], GESARRFQKCFPPGVIG [RPC40] is lower in protein stability index: 3.34 ± 0.18 for the first, 2.24 ± 0.1 for the second.

Going from GFALNSDIVFIHQNAGR [BRR2] to GFANSLTFILGQLLSVK [YML031W/NDC1], the protein stability index falls from 3.03 ± 0.12 to 1.13 ± 0.13.

Compared with GFIETTELLNIYDSEDP [RPN3], GFTASVSNQENAGTDIV [MED1] is higher in protein stability index: 2.71 ± 0.091 for the first, 2.95 ± 0.14 for the second.

GFVIQDRETALDFIGRR [RPB2] and GGDGRDYKGAKLNVVGW [RRI1] are within error of each other in protein stability index: 3.02 ± 0.075 for the first, 3.15 ± 0.15 for the second.

Going from GGLNDPRLGSIDRNLKC [RPO21] to GGQRSLIALSLIMALLQ [SMC2], the protein stability index falls from 3.35 ± 0.17 to 1.33 ± 0.056.

GGSAKPSLKFKPKAVAR [RPC53] and GGSTTNNTTTTSTKPSF [YOR098C/NUP1] are the same in protein stability index: 2.79 ± 0.11 for the first, 2.79 ± 0.075 for the second.

Going from GGVMANRKIARMRHSKR [YOR098C/NUP1] to GHIVSLELTTGATYRGK [SMD3], the protein stability index falls from 3.31 ± 0.13 to 1.98 ± 0.049.

Compared with GHLNGHTPTIASYLTPL [SSN2], GHPMTKSVYETPKITAA [SEC65] is higher in protein stability index: 2.24 ± 0.039 for the first, 2.83 ± 0.17 for the second.

Going from GHYQAFIRDELDENKWY [UBP6] to GIDINTKIFNSVAEVFQ [YCG1], the protein stability index rises from 1.49 ± 0.057 to 2.08 ± 0.1.

Going from GIHILLYSGLIIDEIIT [RPC82] to GINQILGNEKNQASTSK [CDC53], the protein stability index rises from 1.15 ± 0.094 to 3.08 ± 0.15.

GIRIISLTYKKISLRDI [RPN3] and GIRYIRLKQVFNRALDQ [NNF1] are within error of each other in protein stability index: 1.78 ± 0.068 for the first, 1.79 ± 0.035 for the second.

Compared with GISINNMMEHWDYLQLT [RPO31], GISLVMEIVANAKESNY [MED1] is lower in protein stability index: 2.84 ± 0.087 for the first, 1.77 ± 0.065 for the second.

Compared with GISNGSESKDSDKPSLP [YLR335W/NUP2], GISSAYIKSATLYSVKS [SNU114] is lower in protein stability index: 3.29 ± 0.13 for the first, 1.39 ± 0.12 for the second.

Going from GITGNLDRIPMHSYFIF [COB] to GKDCKLQNLQRIIRKKI [RRI2], the protein stability index rises from 2.13 ± 0.12 to 2.98 ± 0.092.

Compared with GKDLSPAINYTKLKNAV [QCR2], GKDRIAINVFPEGYKAK [RPO31] is higher in protein stability index: 1.91 ± 0.064 for the first, 2.37 ± 0.061 for the second.

Going from GKGPGCGFWQPAWRVWL [PRP8] to GKGRFQTPAEKHAFMGT [RPL3], the protein stability index rises from 2.58 ± 0.19 to 3.13 ± 0.17.

First: GKGTGKTAMAELALLNH [BRR2]
Second: GKLLLDEHNELMRQALA [RPO21]
The protein stability index of the first is higher: 3.19 ± 0.11 for the first, 2.41 ± 0.052 for the second.

GKLLRNYTQNIDNLESY [SIR2] and GKLVESEDSMNVQLRDV [SMD3] are within error of each other in protein stability index: 3.48 ± 0.21 for the first, 3.26 ± 0.14 for the second.

GKSTADVKSSDSLKLNS [YJL041W/NSP1] and GKVVKNVLLLDSNGDFN [RRP46] are within error of each other in protein stability index: 3.23 ± 0.14 for the first, 3.35 ± 0.068 for the second.

Going from GKYVIAGHVSGVITVHN [RPN14] to GLCMLGTGKPEAIHDMF [RPN2], the protein stability index rises from 1.55 ± 0.098 to 2.75 ± 0.15.
